The values that follow come from patent US20240076680 (RHEINISCHE FRIEDRICH-WILHELMS-UNIVERSITÄt BONN, published 2024).

Data set [1] deals with SARS-CoV-2 spike receptor-binding domain (RBD) (SARS-CoV-2, UniProt P0DTC2 P0DTC2:319-591). Description: flow.
In data set [2] the target is ACE2 ectodomain (ACE2e) (Homo sapiens, UniProt Q9BYF1 Q9BYF1:19-615). Description: flow. Conditions: tags: N-terminal myc, C-terminal HRV 3C site and 8xHis; FreeStyle 293F expressed.
Chain of ACE2 ectodomain (ACE2e) (Q9BYF1 19-615, one chain of several): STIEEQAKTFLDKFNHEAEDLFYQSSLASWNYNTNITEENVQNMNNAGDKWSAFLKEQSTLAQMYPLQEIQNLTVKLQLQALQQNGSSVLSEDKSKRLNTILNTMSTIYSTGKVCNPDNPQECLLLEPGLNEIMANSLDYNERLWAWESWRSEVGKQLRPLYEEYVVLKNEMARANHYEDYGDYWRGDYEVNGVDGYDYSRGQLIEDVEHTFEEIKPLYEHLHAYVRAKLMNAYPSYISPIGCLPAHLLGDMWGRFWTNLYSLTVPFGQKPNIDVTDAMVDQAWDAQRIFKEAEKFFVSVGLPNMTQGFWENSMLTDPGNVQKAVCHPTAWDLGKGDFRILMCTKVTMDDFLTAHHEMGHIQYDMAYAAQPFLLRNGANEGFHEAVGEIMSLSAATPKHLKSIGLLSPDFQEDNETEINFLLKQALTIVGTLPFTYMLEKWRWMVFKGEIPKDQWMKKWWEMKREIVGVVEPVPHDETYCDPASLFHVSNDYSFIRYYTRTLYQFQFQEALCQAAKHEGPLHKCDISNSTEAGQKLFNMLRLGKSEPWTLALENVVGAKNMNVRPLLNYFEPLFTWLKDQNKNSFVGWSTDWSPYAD

B1: SP7 (ssDNA)
DNA: GGGAGAGGAGGGAGATAGATATCAAAGGAGGGTAGGTAGTGCTTGGTAGGGAAACTCCGCCGATTTTTCGTGGATGCCACAGGAC
In the case of B1, the binding result in data set [1] and in data set [2] was “no binding” throughout.

B2: SP6 (ssDNA)
DNA: GGGAGAGGAGGGAGATAGATATCAACCCATGGTAGGTATTGCTTGGTAGGGATAGTGGGCTTGATGTTTCGTGGATGCCACAGGAC
On to B2, for which the binding result in data set [1] and in data set [2] was “no binding” each time.

B3: SP8 (ssDNA)
DNA: GGGAGAGGAGGGAGATAGATATCAAAAGGAGGGTAGGTAGTGCTTGGTAGGGAAACTCCGCCGATTTTTCGTGGATGCCACAGGAC
In the case of B3, the binding result in data set [1] and in data set [2] was “no binding” in each case.

B4: SP5 (ssDNA)
DNA: GGGAGAGGAGGGAGATAGATATCAACCATGGTAGGTATTGCTTGGTAGGGATAGTGGGCTTGATGTTTCGTGGATGCCACAGGAC
For the molecule B4, the binding result in data set [1] and in data set [2] was “no binding” in each case.
